Test results reported in the supplement of paper PMC10567573.
± gives the standard deviation.

Assay: protein stability index of a GFP-peptide fusion (GPS, HEK-293T) (PSI 1-6); higher = more stable
[1] = treatment: DMSO, c terminus: a fixed tail appended
[2] = treatment: MLN4924 1 uM, 8 h, c terminus: a fixed tail appended
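Also: 24-mer peptide tiles fused after GFP, lentivirally expressed, FACS-sorted into six equal bins by GFP/DsRed ratio, decoded by Illumina sequencing, PSI is the read-weighted mean bin number.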

VDVQTELYLEEIADRIIEVDMECQ [RSPH3]
protein stability index [1]: 2.75 ± 0.32
protein stability index [2]: 3.12 ± 0.69

EAANLLIPAVGSSLSEALDLIESD [MYBL2]
protein stability index [1]: 4.81 ± 0.14
protein stability index [2]: 4.72 ± 0.2

RLAELEAQVRKLELERAQHELLLG [FBF1]
protein stability index [1]: 2.97 ± 0.22
protein stability index [2]: 2.87 ± 0.14

AWNIPMSNPGVDFGDVSERLALRQ [GALNT9]
protein stability index [1]: 3.68 ± 0.27
protein stability index [2]: 3.91 ± 0.26

ICGLQQDEEVSSLTCDALTELLAK [CCND2]
protein stability index [1]: 3.48 ± 0.29
protein stability index [2]: 3.74 ± 0.36

LTLAQGAGEEDPSGMVTIITGLPL [SMG5]
protein stability index [1]: 2.98 ± 0.43
protein stability index [2]: 2.76 ± 0.44

DPNKMAFGCEECGKKYNTMLGYKR [PLAGL1]
protein stability index [1]: 3.07 ± 0.49
protein stability index [2]: 3.46 ± 0.64

GARARGVAMLGVFLVSAVAHEYIF [SOAT2]
protein stability index [2]: 3.591 ± 0.02

GKKFLLLSINRYERKKNLTLALEA [ALG2]
protein stability index [1]: 2.35 ± 0.88
protein stability index [2]: 2.6 ± 0.39

SRRREQSSSRNSHLVQHQHPNSRK [ZNF8]
protein stability index [1]: 5.14 ± 0.46
protein stability index [2]: 5.41 ± 0.075

ELDEPQHEMVAHRHRQEVLCKEMV [ZSCAN9]
protein stability index [1]: 4.72 ± 0.24
protein stability index [2]: 4.76 ± 0.26

IETSALDSTNVEAAFQTILTEIYR [RAB11A]
protein stability index [1]: 2.35 ± 0.074
protein stability index [2]: 2.44 ± 0.44

ATNDDPWGPSGQLMGEIAKATFMY [CLINT1]
protein stability index [1]: 2.34 ± 0.38
protein stability index [2]: 2.32 ± 0.27

KPDYEYLRTLFTDLFEKKGYTFDY [CSNK1G1]
protein stability index [1]: 2.4 ± 0.47
protein stability index [2]: 2.31 ± 0.15

NIWASQSVLSACDNLSDLVMVRWN [IQUB]
protein stability index [1]: 2.14 ± 0.11
protein stability index [2]: 2.27 ± 0.46

NENMAAKKKSVAMHTNYLSACSFT [GNB5]
protein stability index [1]: 3.09 ± 0.21
protein stability index [2]: 3.25 ± 0.3

QRVPKVLVENAKNFPQCVLEISDQ [EFHC1]
protein stability index [1]: 3.49 ± 0.19
protein stability index [2]: 3.81 ± 0.29

ISLHPFNPWNWGKLAEAYLNLGPA [C8orf76]
protein stability index [1]: 2.23 ± 1.1
protein stability index [2]: 2.18 ± 0.77

PPLTRQIAVKTLGIGKNVICDRTA [GFOD1]
protein stability index [1]: 3.71 ± 0.22
protein stability index [2]: 3.92 ± 0.082

SSPVDLVTATDQKVEKMLISSIKE [IMPA1]
protein stability index [1]: 4.38 ± 0.15
protein stability index [2]: 4.28 ± 0.1

SYVHILSAILQFPSTLGRCKAFST [OR10K2]
protein stability index [1]: 3.38 ± 0.61
protein stability index [2]: 3.01 ± 0.63

NDFSYLHTNCFELSIYVGCDKYPH [CPXM2]
protein stability index [1]: 2.5 ± 0.18
protein stability index [2]: 2.25 ± 0.37

NKCSGMRFPLQEENSVTHHEVKCQ [KMT5A]
protein stability index [1]: 4.79 ± 0.42
protein stability index [2]: 4.61 ± 0.37

GSSGPAGLTLGRSFSNYRPFEPQA [SEPHS2]
protein stability index [1]: 3.22 ± 0.12
protein stability index [2]: 3.28 ± 0.16

QSSGKILLCPLCQEEEQAETPMAP [TRIM15]
protein stability index [1]: 3.79 ± 0.36
protein stability index [2]: 4.28 ± 0.31

SLRKGASLSNGQGSRVLHVVQTLY [NCK2]
protein stability index [1]: 2.29 ± 0.26
protein stability index [2]: 2.57 ± 0.11

DSCVLTGPDDSLWDKHACPAYVGP [TRIB3]
protein stability index [1]: 3.65 ± 0.33
protein stability index [2]: 3.62 ± 0.19

LIKALKIFQEKHVNLLHIESRKSK [TPH1]
protein stability index [1]: 2.28 ± 0.12
protein stability index [2]: 2.22 ± 0.23

FMTTNVPNVYPAAPQGGMAALNMS [ADD1]
protein stability index [1]: 2.73 ± 0.41
protein stability index [2]: 2.87 ± 0.36

NVKMIVLICVIVFIIILFIVLFAT [VAMP8]
protein stability index [1]: 2.27 ± 0.3
protein stability index [2]: 2.37 ± 0.27

RFYFENLLAKNSKPIHTTILNPHV [CAMK2B]
protein stability index [1]: 2.2 ± 0.11
protein stability index [2]: 2.23 ± 0.23

DALLGIDDLETMPDDLLTTLDDTC [ATF4]
protein stability index [1]: 5.17 ± 0.16
protein stability index [2]: 5.05 ± 0.34

RLSNNQRYLFLDGDSHYEIEIVHI [ZFYVE21]
protein stability index [1]: 3.21 ± 0.56
protein stability index [2]: 2.21 ± 0.53

PPSMVAAGSVVAAVQGLNLRSPNN [CCND1]
protein stability index [1]: 4.31 ± 0.17
protein stability index [2]: 4.3 ± 0.26

REPDWGDGDAPGSLLPAQVAACAQ [CEBPD]
protein stability index [1]: 5.04 ± 0.28
protein stability index [2]: 4.99 ± 0.47

ALKEKEKASWSSLSMDEKVELYRI [COX4I1]
protein stability index [1]: 3.65 ± 0.27
protein stability index [2]: 3.95 ± 0.23

AQHKDRSTQLEMQLEKPKPVKPVT [MNAT1]
protein stability index [1]: 4.71 ± 0.24
protein stability index [2]: 4.82 ± 0.36

WQDSDTVKLLVDLELSYGFENGQK [TOR1AIP2]
protein stability index [1]: 2.7 ± 0.37
protein stability index [2]: 2.65 ± 0.49

PEVECLKANTNEVLWAVVAAFTK [GOLPH3]
protein stability index (treatment: DMSO, c terminus: native): 2.17 ± 0.17
protein stability index (treatment: MLN4924 1 uM, 8 h, c terminus: native): 2.25 ± 0.31

RANPCLSSSNEHAAPAAKTRKQAA [ELOA2]
protein stability index [1]: 5.08 ± 0.16
protein stability index [2]: 5.18 ± 0.26

EPDAADGPYDPNSVRISFAKGWGP [SMAD6]
protein stability index [1]: 4.17 ± 0.13
protein stability index [2]: 4.19 ± 0.17

ALRERWLLEGTPSSASEGDEDLRR [PALM]
protein stability index [1]: 5 ± 0.25
protein stability index [2]: 5.14 ± 0.21

VTSQATLLTITKAHSNAISNCCFT [WDR88]
protein stability index [1]: 2.3 ± 0.55
protein stability index [2]: 2.18 ± 0.28

NVADTLVLADLHSAEQLKAQAIDF [SPOPL]
protein stability index [1]: 3.46 ± 0.16
protein stability index [2]: 3.77 ± 0.57

AECALVSLKEAEFYDKQLKVLLSG [ZFYVE21]
protein stability index [1]: 2.86 ± 0.24
protein stability index [2]: 3.05 ± 0.48

GARPPPTPPASPPPSVLISKNEVG [KMT2E]
protein stability index [1]: 4.91 ± 0.12
protein stability index [2]: 5.08 ± 0.18

FDQTVFQEVFEPPHYELCTLRGTG [NETO1]
protein stability index [1]: 2.96 ± 0.12
protein stability index [2]: 2.97 ± 0.3

RLKKVENIKIWLSLRSYLKRRGPQ [PHTF1]
protein stability index [1]: 2 ± 0.65
protein stability index [2]: 2.25 ± 0.64

RGFSGGILAFLVLEAVAGALVVAL [TSPAN10]
protein stability index [1]: 2.78 ± 0.9
protein stability index [2]: 2.43 ± 0.41

FGSGSNGCLGHGSLTDISQPTIVE [NEK8]
protein stability index [1]: 3.5 ± 0.34
protein stability index [2]: 3.91 ± 0.2

VPVRRPARRRQSAGPWPRPKGSLS [RASAL3]
protein stability index [1]: 4.73 ± 0.25
protein stability index [2]: 4.68 ± 0.23

RAGTEPSDAIRVVNAVLTQIDQIK [TRIP13]
protein stability index [1]: 3.37 ± 0.15
protein stability index [2]: 3.04 ± 0.27

SSGHQNRRFSSEDLEDPLGGLLSY [FBF1]
protein stability index [1]: 3.6 ± 0.48
protein stability index [2]: 3.89 ± 0.36

ADWAVMDVVNYFRTVGFEEQASAF [SAMD13]
protein stability index [1]: 2.21 ± 0.3
protein stability index [2]: 2.59 ± 0.19

EELAPVGTAHIPPTMHLESPALQV [ZNF449]
protein stability index [1]: 4.18 ± 0.27
protein stability index [2]: 4.33 ± 0.091

GTSTWQFNFKFNLTEDMYAQDSIE [CNOT7]
protein stability index [1]: 2.4 ± 0.2
protein stability index [2]: 2.59 ± 0.28

QYQQVPVEIVKSDFHKPFLGGFRH [IQUB]
protein stability index [1]: 2.7 ± 0.36
protein stability index [2]: 2.99 ± 0.49

KLGALLSRCRKLVEYFQQSAVAMY [ZBED1]
protein stability index [1]: 3.12 ± 0.31
protein stability index [2]: 3.1 ± 0.21

LFTSFQEPPCEGNTFFCHSNMCIN [NETO1]
protein stability index [1]: 2.14 ± 0.42
protein stability index [2]: 2.13 ± 0.41

SINVMKQLIGSSNLFVMQVEMDIY [GMCL1]
protein stability index [1]: 2.98 ± 0.49
protein stability index [2]: 2.82 ± 0.73

MPYISDKHPRQTLEVINLLRKHRE [KLHL20]
protein stability index [1]: 2.86 ± 0.51
protein stability index [2]: 2.98 ± 0.26

LVRTLYKVQNECPGITRVYSIGRS [CPN1]
protein stability index [1]: 2.27 ± 0.55
protein stability index [2]: 2.11 ± 0.14

MARPLVPSSQKALLLELKGLQEEP [CDC34]
protein stability index [1]: 4.06 ± 0.13
protein stability index [2]: 3.98 ± 0.33

LASYLEKVRQLERDNAELEKLIQE [KRT34]
protein stability index [1]: 3.33 ± 0.22
protein stability index [2]: 3.5 ± 0.24

MSEPAGDVRQNPCGSKACRRLFGP [CDKN1A]
protein stability index [1]: 3.58 ± 0.39
protein stability index [2]: 3.61 ± 0.14

SMEVFTHYDLLNLNGTKVAEGHKA [LOXL2]
protein stability index [1]: 4.39 ± 0.16
protein stability index [2]: 3.85 ± 0.42

LNMAKKSVDIVSSHWDLNHTHPSA [PLD5]
protein stability index [1]: 3.1 ± 0.3
protein stability index [2]: 3.2 ± 0.28

NHLPDPEIFRQRFRQFGYQDSPGP [ZNF24]
protein stability index [1]: 3.54 ± 0.29
protein stability index [2]: 3.48 ± 0.3

DELVGLPFSSHTYSQASELPTDAV [FBXO34]
protein stability index [1]: 4.95 ± 0.18
protein stability index [2]: 4.81 ± 0.081

YRFLLYGLHEGKRLGPLSAEGTTG [TNXB]
protein stability index [1]: 2.8 ± 0.62
protein stability index [2]: 2.29 ± 0.31

SAETSGGLLICLPREQAARFCSEI [SEPHS2]
protein stability index [1]: 2.31 ± 0.27
protein stability index [2]: 2.18 ± 0.26

AMEPEPAPAPAPEEWLDILGNGLL [FKBP8]
protein stability index [1]: 4.47 ± 0.1
protein stability index [2]: 4.59 ± 0.41

SDYESIEVPDSYTGPRLSFPLLPD [PPEF2]
protein stability index [1]: 4.13 ± 0.19
protein stability index [2]: 4.09 ± 0.15

SWVSELLWSLFVPFTVYQVRWLRP [AUP1]
protein stability index [1]: 3.12 ± 0.27
protein stability index [2]: 2.81 ± 0.51

LYRDDVLIKPSRVVAILAAACLLQ [GMCL1]
protein stability index [1]: 3.05 ± 0.84
protein stability index [2]: 2.45 ± 0.18

QRRPRVLSCLHSVCEQCLQILYES [RNF208]
protein stability index [1]: 2.32 ± 0.17
protein stability index [2]: 2.64 ± 0.54

EPYARLPPHKHVARPTEVLAGTQL [TRIB3]
protein stability index [1]: 4.05 ± 0.1
protein stability index [2]: 3.88 ± 0.28

LLKALVSELSEHLRDPLTSLSHTE [FCHSD1]
protein stability index [1]: 2.44 ± 0.42
protein stability index [2]: 2.2 ± 0.17

SMLSKNPEDRPSLDDIIRHDFFLQ [PLK2]
protein stability index [1]: 3 ± 0.21
protein stability index [2]: 3.19 ± 0.32

AWFFSKTEELNKEVASNTEMIQTS [KRT15]
protein stability index [1]: 3.83 ± 0.18
protein stability index [2]: 3.84 ± 0.081

QAPKSKSGSRPRKPPPRKHTRSWA [LRRC59]
protein stability index [1]: 4.05 ± 0.21
protein stability index [2]: 4.15 ± 0.29

MASPDDPLRADHMVKEPVEDTDPS [EDARADD]
protein stability index [1]: 5.52 ± 0.17
protein stability index [2]: 5.63 ± 0.2

TSFSNYYRTWNVVVHDWLYSYVYQ [SOAT2]
protein stability index [1]: 3.11 ± 0.27
protein stability index [2]: 3.01 ± 0.4

QELQIDDNEYAYLKAIIFFDPDAK [HNF4A]
protein stability index [1]: 2.53 ± 0.22
protein stability index [2]: 2.72 ± 0.21

IVDKCTELLREGRASATTTITTAA [ZBTB22]
protein stability index [1]: 3.78 ± 0.1
protein stability index [2]: 3.74 ± 0.18

DPACYEFLWGPRALVETSYVKVLH [MAGEA3]
protein stability index [1]: 2.12 ± 0.2
protein stability index [2]: 2.12 ± 0.36

ARGSIVATYIFIFIGETLLSMNWA [SPNS1]
protein stability index [1]: 3.4 ± 0.55
protein stability index [2]: 2.88 ± 0.55

ALRVQQLVAKELGQTGTRLTPADK [AUP1]
protein stability index [1]: 4.04 ± 0.18
protein stability index [2]: 4.16 ± 0.14

EKMALDPYTELRKQPLRKYVTPSD [EFHC1]
protein stability index [1]: 4.03 ± 0.29
protein stability index [2]: 3.95 ± 0.064
